According to the supplement of paper PMC10724198:
± gives the standard deviation of the averaged measurements.

Tested on: Saccharomyces cerevisiae
Experiment: protein stability index of tFT-peptide fusion (C-terminal peptide) (PSI (0-1 scale)); higher = more stable (slower turnover)
Details: temperature: 30 C
Experimental: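 MPS profiling in S. cerevisiae of the yeast C-terminome library: the last 12 aa of each annotated ORF are fused to the C-terminus of a sfGFP-mCherry timer, after a GGGS linker. Cells are FACS-sorted into 8 mCherry/sfGFP bins and deep-sequenced. PSI runs from 0 (unstable) to 1 (stable); wild type and das1Δ backgrounds, two technical replicates each.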

[1] = genetic background: das1 deletion

| Sequence | protein stability index [1] | protein stability index (genetic background: wild type) |
| --- | --- | --- |
| LEELDIEEEYSD [ACL4 C-terminal 12 aa] | 0.687 ± 0.059 | 0.673 ± 0.0086 |
| RFIRTANKKDYL [IMP4 C-terminal 12 aa] | 0.671 ± 0.0071 | 0.7335 ± 0.0025 |
| KLYKNSDFNSEK [RRG7 C-terminal 12 aa] | 0.7 ± 0.0014 | 0.694 ± 0.017 |
| SSDEEENEKELP [PWP2 C-terminal 12 aa] | 0.67854 ± 0.00042 | 0.705 ± 0.039 |
| KTDKVLYKRNGY [HPA3 C-terminal 12 aa] | 0.687 ± 0.02 | 0.675 ± 0.065 |
| FKAKFRKVKINA [YKR015C C-terminal 12 aa] | 0.6339 ± 0.0053 | 0.134 ± 0.0025 |
| RDLQSALVRQLL [CAD1 C-terminal 12 aa] | 0.718 ± 0.025 | 0.68 ± 0.021 |
| GAAVAAGVAFLF [YDR524C-B C-terminal 12 aa] | 0.717 ± 0.018 | 0.717 ± 0.044 |
| KRRIEEIQMLFE [RAD5 C-terminal 12 aa] | 0.7081 ± 0.0032 | 0.683 ± 0.036 |
| LKQENAYLLIRR [RPB8 C-terminal 12 aa] | 0.693 ± 0.0081 | 0.68 ± 0.01 |
| PRDEQDSRKRNR [IBD2 C-terminal 12 aa] | 0.699 ± 0.0085 | 0.7315 ± 0.0047 |
| ESHQDKTEEDIH [OKP1 C-terminal 12 aa] | 0.69113 ± 0.00011 | 0.726 ± 0.035 |
| QVLGTEEPTVRT [PGM2 C-terminal 12 aa] | 0.696 ± 0.046 | 0.6625 ± 0.0017 |
| GDSDNVVKRLRK [URB1 C-terminal 12 aa] | 0.686 ± 0.018 | 0.707 ± 0.016 |
| MVTSIRSTPNYI [MED6 C-terminal 12 aa] | 0.694 ± 0.021 | 0.722 ± 0.051 |
| QKKEEAKHKASE [UFD2 C-terminal 12 aa] | 0.711 ± 0.0087 | 0.721 ± 0.067 |
| TIAIGKIVKIAE [SUP35 C-terminal 12 aa] | 0.7085 ± 0.0052 | 0.685 ± 0.013 |
| CHLLFGTHKKTL [YBL071C-B C-terminal 12 aa] | 0.7233 ± 0.002 | 0.6921 ± 0.003 |
| EVYLQAIDLIDC [PIR3 C-terminal 12 aa] | 0.6774 ± 0.0063 | 0.6614 ± 0.005 |
| KRSLRRNARKGL [ESC8 C-terminal 12 aa] | 0.721 ± 0.0077 | 0.687 ± 0.026 |
| VHPNWSPFEVFK [GCY1 C-terminal 12 aa] | 0.744 ± 0.033 | 0.738 ± 0.037 |

| Sequence | protein stability index [1] | protein stability index (genetic background: wild type) |
| --- | --- | --- |
| SSKAIQGNFDDL [SPB4 C-terminal 12 aa] | 0.704 ± 0.018 | 0.714 ± 0.047 |
| RYNDERLGPVQG [IRC24 C-terminal 12 aa] | 0.696 ± 0.021 | 0.684 ± 0.043 |
| CFFLRKENGKDE [YLR120W-A C-terminal 12 aa] | 0.709 ± 0.041 | 0.687 ± 0.017 |
| GTAASEPTPITK [ATP15 C-terminal 12 aa] | 0.7295 ± 0.0065 | 0.681 ± 0.017 |
| TKISIRKAPKFF [MRPL31 C-terminal 12 aa] | 0.701 ± 0.019 | 0.656 ± 0.024 |
| RKPPGFFDEGFM [FLC3 C-terminal 12 aa] | 0.733 ± 0.061 | 0.6965 ± 0.0051 |
| RTKGQKWFDGLM [NAT2 C-terminal 12 aa] | 0.6819 ± 0.0031 | 0.698 ± 0.016 |
| PREILLRLMNDK [PRP6 C-terminal 12 aa] | 0.726 ± 0.024 | 0.704 ± 0.096 |
| PRRSDLRPEFAE [VMA9 C-terminal 12 aa] | 0.672 ± 0.022 | 0.665 ± 0.018 |
| AINYIGNIRRNE [ACO2 C-terminal 12 aa] | 0.7288 ± 0.0043 | 0.727 ± 0.048 |
| PPSDPSSIKIRN [KIN28 C-terminal 12 aa] | 0.71109 ± 0.00022 | 0.729 ± 0.0076 |
| GNAIREIKTYKY [GLY1 C-terminal 12 aa] | 0.687 ± 0.035 | 0.658 ± 0.052 |
| LEQGFKVVSAKE [YCS4 C-terminal 12 aa] | 0.697 ± 0.057 | 0.6812 ± 0.0067 |
| DYYFRTGVKRLQ [ARP10 C-terminal 12 aa] | 0.705 ± 0.028 | 0.732 ± 0.044 |
| YFNLFTDLSGSK [NEL1 C-terminal 12 aa] | 0.73 ± 0.012 | 0.72 ± 0.043 |
| GRNKIYILFNVL [YMR030W-A C-terminal 12 aa] | 0.6466 ± 0.0047 | 0.116 ± 0.0082 |
| HPTSAEELVTMR [GLR1 C-terminal 12 aa] | 0.7175 ± 0.007 | 0.693 ± 0.071 |
| WRSIGSGPIMEF [BUG1 C-terminal 12 aa] | 0.706 ± 0.024 | 0.719 ± 0.031 |
| LDTLQTASQYLP [VID22 C-terminal 12 aa] | 0.7056 ± 0.0017 | 0.749 ± 0.079 |
| HENSKCFTHYLI [AFR1 C-terminal 12 aa] | 0.684 ± 0.035 | 0.6605 ± 0.0065 |
| LEQYEKTLVHDD [GCV3 C-terminal 12 aa] | 0.6942 ± 0.00074 | 0.678 ± 0.05 |

| Sequence | protein stability index [1] | protein stability index (genetic background: wild type) |
| --- | --- | --- |
| LYELKGLLGNDS [INP2 C-terminal 12 aa] | 0.681 ± 0.021 | 0.673 ± 0.032 |
| IWKEVKRHQDFA [ATG20 C-terminal 12 aa] | 0.7235 ± 0.0023 | 0.734 ± 0.0089 |
| DLESLFKEKLSI [ALA1 C-terminal 12 aa] | 0.7111 ± 0.0015 | 0.705 ± 0.02 |
| RSVYDYNGSLKV [CSR1 C-terminal 12 aa] | 0.686 ± 0.012 | 0.691 ± 0.015 |
| PVRHQTGMHFCI [YHR032W-A C-terminal 12 aa] | 0.721 ± 0.009 | 0.682 ± 0.029 |
| YTTVLSSQSSKL [PEX8 C-terminal 12 aa] | 0.783 ± 0.013 | 0.855 ± 0.091 |
| NPSILGDFTRED [RTR1 C-terminal 12 aa] | 0.663 ± 0.015 | 0.715 ± 0.02 |
| STTIRAINALYS [HSP32 C-terminal 12 aa] | 0.675 ± 0.017 | 0.65 ± 0.037 |
| RSKLFNLSINNP [SPC72 C-terminal 12 aa] | 0.6997 ± 0.001 | 0.6855 ± 0.0063 |
| TLISGKEDGPTI [SRY1 C-terminal 12 aa] | 0.69 ± 0.028 | 0.701 ± 0.044 |
| ESTTDAESKGSK [MRPL11 C-terminal 12 aa] | 0.676 ± 0.015 | 0.706 ± 0.11 |
| LCSIYKALLLGP [ATF1 C-terminal 12 aa] | 0.6813 ± 0.0019 | 0.67 ± 0.0087 |
| IWKPAGNLVGHS [MSI1 C-terminal 12 aa] | 0.698 ± 0.013 | 0.7019 ± 0.0026 |
| LDYALVEMDKLF [UTP13 C-terminal 12 aa] | 0.708 ± 0.033 | 0.708 ± 0.039 |
| LIRKMYYKNLKK [SSL2 C-terminal 12 aa] | 0.693 ± 0.05 | 0.757 ± 0.028 |
| LEHGLKVRMDEE [HIS7 C-terminal 12 aa] | 0.7083 ± 0.0038 | 0.72 ± 0.06 |
| LYHKDADTIFHA [IRC11 C-terminal 12 aa] | 0.708 ± 0.014 | 0.715 ± 0.015 |
| GTKMEWFFDPLA [IPT1 C-terminal 12 aa] | 0.732 ± 0.025 | 0.701 ± 0.0081 |
| YSLLIHLSKKKS [YNR005C C-terminal 12 aa] | 0.668 ± 0.025 | 0.6119 ± 0.0036 |
| YGRGETPKHAIE [DPH1 C-terminal 12 aa] | 0.692 ± 0.0084 | 0.713 ± 0.062 |
| SAGSLEYTARYM [YML012C-A C-terminal 12 aa] | 0.693 ± 0.036 | 0.671 ± 0.0079 |

| Sequence | protein stability index [1] | protein stability index (genetic background: wild type) |
| --- | --- | --- |
| KLVDVRKVYYSS [MRPS5 C-terminal 12 aa] | 0.7071 ± 0.0029 | 0.6234 ± 0.0043 |
| NTSRIAKFFNRR [SEC15 C-terminal 12 aa] | 0.702 ± 0.031 | 0.70527 ± 7.1e-05 |
| NRIVSLKDATSK [GLN4 C-terminal 12 aa] | 0.689 ± 0.021 | 0.685 ± 0.025 |
| ESDDDMGFGLFD [RPP0 C-terminal 12 aa] | 0.7176 ± 0.002 | 0.717 ± 0.016 |
| IFSSLVHYCNAG [LST4 C-terminal 12 aa] | 0.729 ± 0.013 | 0.73 ± 0.0085 |
| AKNARPSKKRKF [DBP10 C-terminal 12 aa] | 0.752 ± 0.025 | 0.6782 ± 0.0047 |
| YGNWSKTVADLN [BAT1 C-terminal 12 aa] | 0.692 ± 0.022 | 0.687 ± 0.022 |
| IFRDYFYKSPSP [PIG1 C-terminal 12 aa] | 0.739 ± 0.0098 | 0.763 ± 0.034 |
| QTQLCKRKKKLT [VIK1 C-terminal 12 aa] | 0.687 ± 0.024 | 0.608 ± 0.051 |
| GPYWKRVLDFWC [GNP1 C-terminal 12 aa] | 0.752 ± 0.012 | 0.739 ± 0.029 |
| LRRIAKKHHKKK [SPB1 C-terminal 12 aa] | 0.699 ± 0.044 | 0.722 ± 0.034 |
| VCKFASWLFSKI [AMD2 C-terminal 12 aa] | 0.72 ± 0.041 | 0.6687 ± 0.005 |
| TEMATDASARMV [TPO4 C-terminal 12 aa] | 0.687 ± 0.0097 | 0.682 ± 0.0089 |
| WSDKLLQIYARC [SAE2 C-terminal 12 aa] | 0.5447 ± 0.0049 | 0.516 ± 0.045 |
| LKRTAIQFAAFS [SEC5 C-terminal 12 aa] | 0.6855 ± 0.0022 | 0.6844 ± 0.0012 |
| KVFDRSGIVLEK [QRI1 C-terminal 12 aa] | 0.71 ± 0.013 | 0.701 ± 0.016 |
| ENLRLKLKNFLR [MSH5 C-terminal 12 aa] | 0.683 ± 0.0095 | 0.688 ± 0.022 |
| FSTIDGSIKDIK [FDO1 C-terminal 12 aa] | 0.668 ± 0.023 | 0.6865 ± 0.0054 |
| TFPLVMMKTTYY [YFR009W-A C-terminal 12 aa] | 0.72 ± 0.065 | 0.697 ± 0.044 |
